Source: US20170298425

Assays:
Experiment in all cases: cell_activity
[1] = system: TlpA36 (Salmonella enterica); conditions: GFP derepression fold change 31.4 to 44.6 C, E. coli; SEM 63
[2] = system: TlpA39 (Salmonella enterica); conditions: GFP derepression fold change 31.4 to 44.6 C, E. coli; SEM 434
[3] = system: TlpA (in cell) (Salmonella enterica); conditions: GFP derepression fold change 31.4 to 44.6 C, E. coli; SEM 45
[4] = molecular target: TcI (cI857, A67T) (bacteriophage lambda) (UniProt P03034); conditions: GFP derepression fold change 34.2 to 40 C, E. coli; SEM 404; text gives >1432
[5] = molecular target: TcI38 (bacteriophage lambda) (UniProt P03034); conditions: GFP derepression fold change 32.4 to 40 C, E. coli; SEM 160
[6] = molecular target: TcI42 (bacteriophage lambda) (UniProt P03034); conditions: GFP derepression fold change 32.4 to 45.7 C, E. coli; SEM 444

Substance | activity [1] [fold] | activity [2] [fold] | activity [3] [fold] | activity [4] [fold] | activity [5] [fold] | activity [6] [fold]
pTlpA operator/promoter, 52 bp | 370 | 1520 | 355 |  |  | 
lambda tandem pR/pL operator/promoter |  |  |  | 1430 | 1030 | 1690
